18 variants from the RNAGym collection of RNA variant scans (doi:10.1021/acssynbio.7b00057) can be followed below.

To fix the notation:
B1: Pistol ribozyme (parent)
chain: GGGUCGUUGUUCCAUAAUCGCGUGGAUAUGGCACGCAAGUUUCUACCGGGCACCGUAAAUGUCCGACUGGAGCCGUUCGGGCGGCUAUAAACAGACCUCAGGCCCGAAGCGUGGCGGCACCUGCCGCCGGUGGUAAAAAAGAUCGGAAGAGCACACGUCU

The variants in this series derive from B1. The series can be described thus: aptazyme ON/OFF ratio, guanine; higher = stronger switching; co-transcriptional cleavage with and without guanine.
Consider GGGUCGAUCGAAAAUAAUCGCGUGGAUAUGGCACGCAAGUUUCUACCGGGCACCGUAAAUGUCCGACUGGAGCCGUUCGGGCGGCUAUAAACAGACCUCAGGCCCGAAGCGUGGCGGCACCUGCCGCCGGUGGUAAAAAAGAUCGGAAGAGCACACGUCU, for which the “aptazyme ON/OFF ratio” value came out at 1.07.

Consider GGGUCGAUCGAAUAUAAUCGCGUGGAUAUGGCACGCAAGUUUCUACCGGGCACCGUAAAUGUCCGACUGGAGCCGUUCGGGCGGCUAUAAACAGACCUCAGGCCCGAAGCGUGGCGGCACCUGCCGCCGGUGGUAAAAAAGAUCGGAAGAGCACACGUCU, for which the “aptazyme ON/OFF ratio” value was found to be 1.07.

Turning to GGGUCGAUCGAAGAUAAUCGCGUGGAUAUGGCACGCAAGUUUCUACCGGGCACCGUAAAUGUCCGACUGGAGCCGUUCGGGCGGCUAUAAACAGACCUCAGGCCCGAAGCGUGGCGGCACCUGCCGCCGGUGGUAAAAAAGAUCGGAAGAGCACACGUCU, the “aptazyme ON/OFF ratio” value was 1.08.

Take GGGUCGAUCGUCUAUAAUCGCGUGGAUAUGGCACGCAAGUUUCUACCGGGCACCGUAAAUGUCCGACUGGAGCCGUUCGGGCGGCUAUAAACAGACCUCAGGCCCGAAGCGUGGCGGCACCUGCCGCCGGUGGUAAAAAAGAUCGGAAGAGCACACGUCU: the “aptazyme ON/OFF ratio” value was 1.33.

As for GGGUCGAUCGUCAAUAAUCGCGUGGAUAUGGCACGCAAGUUUCUACCGGGCACCGUAAAUGUCCGACUGGAGCCGUUCGGGCGGCUAUAAACAGACCUCAGGCCCGAAGCGUGGCGGCACCUGCCGCCGGUGGUAAAAAAGAUCGGAAGAGCACACGUCU, the “aptazyme ON/OFF ratio” value turned out to be 1.15.

Take GGGUCGAUCGUCGAUAAUCGCGUGGAUAUGGCACGCAAGUUUCUACCGGGCACCGUAAAUGUCCGACUGGAGCCGUUCGGGCGGCUAUAAACAGACCUCAGGCCCGAAGCGUGGCGGCACCUGCCGCCGGUGGUAAAAAAGAUCGGAAGAGCACACGUCU: the “aptazyme ON/OFF ratio” value is 1.14.

For GGGUCGAUCGUUUAUAAUCGCGUGGAUAUGGCACGCAAGUUUCUACCGGGCACCGUAAAUGUCCGACUGGAGCCGUUCGGGCGGCUAUAAACAGACCUCAGGCCCGAAGCGUGGCGGCACCUGCCGCCGGUGGUAAAAAAGAUCGGAAGAGCACACGUCU, the “aptazyme ON/OFF ratio” value was 1.56.

For GGGUCGAUCGUUAAUAAUCGCGUGGAUAUGGCACGCAAGUUUCUACCGGGCACCGUAAAUGUCCGACUGGAGCCGUUCGGGCGGCUAUAAACAGACCUCAGGCCCGAAGCGUGGCGGCACCUGCCGCCGGUGGUAAAAAAGAUCGGAAGAGCACACGUCU, the “aptazyme ON/OFF ratio” value was 1.06.

In the case of GGGUCGAUCGUUGAUAAUCGCGUGGAUAUGGCACGCAAGUUUCUACCGGGCACCGUAAAUGUCCGACUGGAGCCGUUCGGGCGGCUAUAAACAGACCUCAGGCCCGAAGCGUGGCGGCACCUGCCGCCGGUGGUAAAAAAGAUCGGAAGAGCACACGUCU, the “aptazyme ON/OFF ratio” value came to 1.11.

As for GGGUCGAUCGUGAAUAAUCGCGUGGAUAUGGCACGCAAGUUUCUACCGGGCACCGUAAAUGUCCGACUGGAGCCGUUCGGGCGGCUAUAAACAGACCUCAGGCCCGAAGCGUGGCGGCACCUGCCGCCGGUGGUAAAAAAGAUCGGAAGAGCACACGUCU, the “aptazyme ON/OFF ratio” value is 1.07.

Turning to GGGUCGAUCGUGUAUAAUCGCGUGGAUAUGGCACGCAAGUUUCUACCGGGCACCGUAAAUGUCCGACUGGAGCCGUUCGGGCGGCUAUAAACAGACCUCAGGCCCGAAGCGUGGCGGCACCUGCCGCCGGUGGUAAAAAAGAUCGGAAGAGCACACGUCU, the “aptazyme ON/OFF ratio” value was found to be 1.1.

Regarding GGGUCGAUCGUGGAUAAUCGCGUGGAUAUGGCACGCAAGUUUCUACCGGGCACCGUAAAUGUCCGACUGGAGCCGUUCGGGCGGCUAUAAACAGACCUCAGGCCCGAAGCGUGGCGGCACCUGCCGCCGGUGGUAAAAAAGAUCGGAAGAGCACACGUCU, the “aptazyme ON/OFF ratio” value was 1.1.

For GGGUCGAUCGAUCAUAAUCGCGUGGAUAUGGCACGCAAGUUUCUACCGGGCACCGUAAAUGUCCGACUGGAGCCGUUCGGGCGGCUAUAAACAGACCUCAGGCCCGAAGCGUGGCGGCACCUGCCGCCGGUGGUAAAAAAGAUCGGAAGAGCACACGUCU, the “aptazyme ON/OFF ratio” value was 1.04.

As for GGGUCGAUCGAACAUAAUCGCGUGGAUAUGGCACGCAAGUUUCUACCGGGCACCGUAAAUGUCCGACUGGAGCCGUUCGGGCGGCUAUAAACAGACCUCAGGCCCGAAGCGUGGCGGCACCUGCCGCCGGUGGUAAAAAAGAUCGGAAGAGCACACGUCU, the “aptazyme ON/OFF ratio” value is 1.1.

As for GGGUCGAUCGAGCAUAAUCGCGUGGAUAUGGCACGCAAGUUUCUACCGGGCACCGUAAAUGUCCGACUGGAGCCGUUCGGGCGGCUAUAAACAGACCUCAGGCCCGAAGCGUGGCGGCACCUGCCGCCGGUGGUAAAAAAGAUCGGAAGAGCACACGUCU, the “aptazyme ON/OFF ratio” value was found to be 1.06.

As to GGGUCGAUCGUAAAUAAUCGCGUGGAUAUGGCACGCAAGUUUCUACCGGGCACCGUAAAUGUCCGACUGGAGCCGUUCGGGCGGCUAUAAACAGACCUCAGGCCCGAAGCGUGGCGGCACCUGCCGCCGGUGGUAAAAAAGAUCGGAAGAGCACACGUCU, the “aptazyme ON/OFF ratio” value was determined as 1.08.

Consider GGGUCGAUCGUAUAUAAUCGCGUGGAUAUGGCACGCAAGUUUCUACCGGGCACCGUAAAUGUCCGACUGGAGCCGUUCGGGCGGCUAUAAACAGACCUCAGGCCCGAAGCGUGGCGGCACCUGCCGCCGGUGGUAAAAAAGAUCGGAAGAGCACACGUCU, for which the “aptazyme ON/OFF ratio” value is 1.09.

Regarding GGGUCGAUCGUAGAUAAUCGCGUGGAUAUGGCACGCAAGUUUCUACCGGGCACCGUAAAUGUCCGACUGGAGCCGUUCGGGCGGCUAUAAACAGACCUCAGGCCCGAAGCGUGGCGGCACCUGCCGCCGGUGGUAAAAAAGAUCGGAAGAGCACACGUCU, the “aptazyme ON/OFF ratio” value was 1.09.
